Results as given in paper PMC7659708, “Genetically encoded live-cell sensor for tyrosinated microtubules” (The Journal of Cell Biology, 2020).
Several values for one entry are separate records, joined by “and”; a condition that tells them apart may be missing. Identical values can stand only once. Where no end group is shown, it is not given here. The star is where a group is joined. Biotin = O=C1N[C@H]2[C@H](CS[C@H]2CCCCC(=O)*)N1

T1: 13C-15N isotope-labeled A1aY1 protein (thrombin-cleaved) (13C, 15N isotope-labeled)
T1 construct: A1aY1, an SSO7D mutant selected from a combinatorial yeast display library; source: E. coli Rosetta (DE3) grown in M9 media, purified (Ni-NTA, SEC, thrombin cleavage, SEC); not shown: His6, N-terminal, cleaved
T1 chain: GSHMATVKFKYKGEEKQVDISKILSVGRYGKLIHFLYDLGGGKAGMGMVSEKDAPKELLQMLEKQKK

T2: biotin-TUBA1A 440-451 (human)
T2 construct: C-terminal tail of human alpha-tubulin TUBA1A, amino acids 440-451, tyrosinated; source: synthetic peptide (Thermo Fisher Scientific)
T2 peptide: Biotin-VEGEGEEEGEEY

T3: biotin-TUBA1A 440-450 (human)
T3 construct: C-terminal tail of human alpha-tubulin TUBA1A, amino acids 440-450, without the terminal tyrosine (detyrosinated); source: synthetic peptide (Thermo Fisher Scientific)
T3 peptide: Biotin-VEGEGEEEGEE

T4: biotin-TUBA1A 440-451-[E]445 (human)
T4 construct: C-terminal tail of human alpha-tubulin TUBA1A, amino acids 440-451, printed VEGEG[E]EEGEEY with [E] the monoglutamylated residue 445; source: synthetic peptide (Thermo Fisher Scientific)
T4 peptide: Biotin-VEGEGE(Glu)EEGEEY

T5: biotin-Tub84B 438-450 (Drosophila)
T5 construct: C-terminal tail of Drosophila alpha-tubulin Tub84B; they would span 439-450 if the last residue is 450; source: synthetic peptide (LifeTein)
T5 peptide: Biotin-SGDGEGEGAEEY

T6: biotin-Tba-1 437-449 (C. elegans)
T6 construct: C-terminal tail of C. elegans alpha-tubulin Tba-1, amino acids 437-449; source: synthetic peptide (LifeTein)
T6 peptide: Biotin-SNEGGNEEEGEEY

B1: nonbiotinylated Hs_TUBA1A peptide (peptide)
peptide: VEGEGEEEGEEY
notes: C-terminal tail of human alpha-tubulin TUBA1A, amino acids 440-451, tyrosinated, without biotin; also called tyrosinated peptide; α-tubulin CTT peptide; source: synthetic peptide (LifeTein)
B2: A1aY1 binder (designed binder)
chain: MATVKFKYKGEEKQVDISKILSVGRYGKLIHFLYDLGGGKAGMGMVSEKDAPKELLQMLEKQKK
notes: A1aY1, an SSO7D mutant selected from a combinatorial yeast display library; (His6, thrombin site, A1aY1); Protein used in the SPR steady-state titrations; The results say 'without any tags'; the methods describe the stored protein as 9.3 kD, which is the size with His6 and thrombin site, and tell of thrombin cleavage only for the NMR sample; also called tyrosination sensor; source: E. coli …

Experiments:
Details in all cases: both partners purified
[1] = biological target: T1, 13C-15N isotope-labeled A1aY1 protein …; assay: NMR titration; 1H-15N HSQC of 13C,15N-labeled A1aY1 with nonbiotinylated peptides added at 0.5 to 7 equivalents (Hs_TUBA1A) or 1 to 4 equivalents (Hs_TUBA1A-ΔY); 25°C
biotin-TUBA1A 440-451 = biological target: T2, biotin-TUBA1A 440-451; assay: SPR; steady-state binding assay, Biacore-T200; biotinylated peptides immobilized on a streptavidin (SA) sensor chip at 100-300 response units; A1aY1 titrated from 0.031 to 200 µM; 1x HBS-P+ (10 mM Hepes, 150 mM NaCl, 0.05% surfactant P20), 30 µl/min; 1:1 binding considered, one site total fit
biotin-TUBA1A 440-450 = biological target: T3, biotin-TUBA1A 440-450; assay: as above
[2] = biological target: T4, biotin-TUBA1A 440-451-[E]445; assay: as above
biotin-Tub84B 438-450 = biological target: T5, biotin-Tub84B 438-450; assay: as above
biotin-Tba-1 437-449 = biological target: T6, biotin-Tba-1 437-449; assay: as above

Binder | binding result [1] | Kd (biotin-TUBA1A 440-451) [µM] | Kd (biotin-TUBA1A 440-450) [µM] | Kd [2] [µM] | Kd (biotin-Tub84B 438-450) | Kd (biotin-Tba-1 437-449) [µM]
B1 | binds | – | – | – | – | –
B2 | – | 1.6 ± 0.3 | > 60 | 13.6 ± 4.5 | 4.1 µM and 4 µM | 1 ± 0.2
